Source: article doi:10.1101/2023.07.21.550003 (bioRxiv, 2023)

Biological target: T1, canonical HER2, extracellular region (residues 22-587) (human, UniProt P04626)
T1 construct: HER2 (ERBB2), human, extracellular region spanning residues 22-587, amplified from the complete cDNA clone BC156755 / P04626; Cloned in a modified p3XFLAG-CMV-25 vector; also called ERBB2; human epidermal growth factor receptor 2; source: HEK293F, transfected, purified from supernatant (HisTrap, Superdex200); not shown: FLAG, N-terminal, kept
Experiment: flow cytometry on cells; yeast clones displaying scFv (anti-c-myc-FITC for display) incubated with purified Flag-tagged HER2 variants at room temperature for 2 hours; anti-Flag iFluor 647
Conditions: one partner purified

binding result: binds
B1: Clone 32 (scFv displayed on yeast) (scFv, V domains shown)
VH: EVQLVESGGGLVQPGGSLRLSCAASGFTFGEYTMDWVRQAPGKGLEWVADVNPNSGGSIYNKRFKGRFTLSVDRSKNTLYLQMNSLRAEDTAVYYCARNLGPSFYFDYWGQGTLVTVSS
VL: DIQMTQSPSSLSASVGDRVTITCKASQDVSIGVAWYQQKPGKAPKLLIYSASYRYTGVPSRFSGSGSGTDFTLTISSLQPEDFATYYCQQYYIYPYTFGQGTKVEIK
notes: as the heavy-chain variable region of m4 (Pertuzumab, PDB 1S78), with the changes of clone 32 among the 14 library positions; linker: three repeats of G4S between the VH and VL; as the light-chain variable region of m4 (Pertuzumab, PDB 1S78); The methods also say the library was built 'based on the AAL160 template antibody'; source: S. cerevisiae EBY100, yeast surface display (pCTCON2)
